Test results taken from article PMC8755526.
Each block holds one substance with its values, some of them ahead of it.

Legend:
[1] = molecular target: PLK1 Polo-Box domain (Flag- or Myc-tagged) (human); test: co-IP; lysates of cells co-expressing differently tagged PLK1 PBD incubated with increasing amounts of purified GST-Bora, then co-IP
[2] = molecular target: PLK1-T210E fused to CFP, YFP or mTurquoise 2 (human) (UniProt P53350); test: FRET or BRET; FRET by confocal microscopy of fixed HEK293T cells co-transfected with YFP and mTurquoise constructs; 'FRET and co-localization analyzer' ImageJ plug-in
[3] = molecular target: endogenous PLK1 of HeLa-PLK1–3xMyc cells (human (endogenous in HeLa)) (UniProt P53350); test: SEC; lysate of HeLa-PLK1–3xMyc cells synchronized in G2 with the CDK1 inhibitor RO3306; Superose 3.2/300, 50 mM Tris pH 7.5, 150 mM NaCl, 20 mM CHAPS, 1 mM DTT, 4 °C; fractions blotted
[4] = molecular target: full-length, wild-type PLK1 (Flag-, Myc- or V5-tagged) (human) (UniProt P53350); test: cross-linking; BS3 (20:1 crosslinker-protein) added to lysates of HEK293T cells for 30 min, quenched; IPs with anti-V5 and anti-Myc; SDS-PAGE and western blot with PLK1- and Bora-specific antibodies

increase of co-precipitated PBD with purified GST-Bora added (lane 2) against none (lane 1) [1]: 60%
Substance: PLK1 Polo-Box domain (Flag- or Myc-tagged) (domain or fragment)

fold decrease of FRET emission against WT PLK1 [2]: 6 to 8 fold
Substance: PLK1-T210E fused to CFP, YFP or mTurquoise 2 (from UniProt P53350 1-603) (enzyme)

stoichiometry N [3]: 2
Substance: endogenous PLK1 of HeLa-PLK1–3xMyc cells (from UniProt P53350 1-603) (enzyme)

stoichiometry N [4]: 2
Substance: full-length, wild-type PLK1 (Flag-, Myc- or V5-tagged) (from UniProt P53350 1-603) (enzyme)
